Target: CD38 (UniProt P28907)
Experiment: cell-based or functional assay

reduction in detectable CD38+ pbNK cell counts against the control condition: 21 fold
Substance: daratumumab (antibody)
